Publication PMC5895741, “Quantitative characterization of all single amino acid variants of a viral capsid-based drug delivery vehicle” (Nature Communications, 2018)

Target: the molecule itself
Test: SEC; in vitro acid screen of purified VLPs; HPLC SEC peak height relative to pH 7.3 (normalized acid tolerance, n = 3)

B1: MS2 bacteriophage coat protein CP[T71H/E76C] (natural protein)
chain: ASNFTQFVLVDNGGTGDVTVAPSNFANGVAEWISSNSRSQAYKVTCSVRQSSAQNRKYTIKVEVPKVATQHVGGVCLPVAAWRSYLNMELTIPIFATNSDCELIVKAMQGLLKDGNPIPSAIAANSGIY
notes: MS2 bacteriophage coat protein (MS2 CP); also called CP[T71/E76C]; double mutant
- binding result: binds
